Measured values as given in PMC11889175, “Molecular principles of redox-coupled sodium pumping of the ancient Rnf machinery” (Nature Communications, 2025).
Where two headings read alike, the source gives them in different places.

B1: RnfE subunit of the Rnf complex from Acetobacterium woodii (natural protein)
chain: MNFMKNLTRGIIRENPTFVLVLGMCPTLAVTTSAINGMGMGLATMLVLIGSNVAISALRKVIPDNIRIPAFVVVIASFVTIVGMLMKAYVPALDAALGIFIPLIVVNCIILARAEAFAFSNGIADSFADAVGMGLGFTLALTILGSIREILGAGSIFGFSLFGAAYEPVLLMILPPGAFLTLGLLIGLINWKTKKA
notes: RnfE, integral membrane subunit of the Rnf complex, homologous to RnfA (29% identity), Acetobacterium woodii; rnf genes amplified from genomic DNA
B3: RnfD subunit of the Rnf complex from Acetobacterium woodii (natural protein)
chain: MNELNLTVSSSPHIRAKHSTASIMQNVIIALLPALAVAGYVFGLWALALVAICVISSVATEAVIQKLLKKPITVNDWSAVVTGVLLAFNLPINAPWWIGVVGSVFAIAIVKQCFGGLGQNFINPALAARAFLLASWPGHMTSTAYIPLTDTVTTATPLALLKAGETGSMPSTLDLFTGLNGVYGCIGEISALALLIGGLYLIYKGIISWRIPTIYLLTIAIFALLVGQDPIVHMVSGGVMLGAFFMATDYASSPVTAKGQIIYAIGCGLITMIIRLYGGYPEGCSYSILLMNVATPLIERFTKERIYGVTKIKKEAKA
modifications: FMN covalently linked to T156
notes: RnfD, integral membrane subunit of the Rnf complex with ten transmembrane helices (riboflavin and covalent FMN), Acetobacterium woodii; rnf genes amplified from genomic DNA
B4: RnfB subunit of the Rnf complex from Acetobacterium woodii (natural protein)
chain: MLNAILVPVGILGVFGLIFGIGLAIAAKVFEVYEDPRVPLVRAALPGANCGGCGLPGCDALAANIVGGSAAIDACPVGGASCAAAVAEIMGMEAGSAVKKVATVICQGTCETAPNRAEYYGEMDCREAMIASGGSKGCRYGCLGYGTCKAVCPFDAIVIGEDGLPKVDPEKCTSCGKCVEACPKSIMTLVPEAQEVIVKCHNFDKGKIARLSCTTACIACGACVKACRFDAITVENNCAKIDYDKCRQCYECVDKCPMNCISGDVEYGKSTAYIIEENCIACGLCAKNCPVNAITGEIKKPPYVIDHDMCIGCGICFDKCRKSAIEMRPNKTK
notes: RnfB, membrane-anchored poly-ferredoxin subunit of the Rnf complex with eight [4Fe4S] clusters, Acetobacterium woodii; rnf genes amplified from genomic DNA; B8-domain is residues 30-100 of RnfB; also called poly-ferredoxin subunit RnfB
B5: RnfG subunit of the Rnf complex from Acetobacterium woodii (natural protein)
chain: METKEKVQIDWKVVFKLGLILFVISAVAACALALTNYVTAGTIEEMNVQTNTVARQEVLPKAADFEAVPAKDVEKIASEIGMEKPEELLEVYIGKSNGEVVGYTVKTGPTSGYAGEVQVLTGISADGVITGITIIKSNETPGLGAKASGVWNDQFTGKSAKEELVVVKGTTKEGSNEIQAITGSTITSKAVTSGVNMSIQVYQNLSK
modifications: FMN covalently linked to T185
notes: RnfG, membrane-anchored periplasmic flavoprotein subunit of the Rnf complex, Acetobacterium woodii; rnf genes amplified from genomic DNA; The complex was captured on Ni-NTA by this tag; no cleavage step is described; not shown: His-Tag, C-terminal, kept

How the values were obtained:
[1] = target: T1, Rnf complex (NADH / FMN site in RnfC) (Acetobacterium woodii, UniProt H6LC32); assay: cryo-EM structure, […] Å; type: binding; design: whole six-subunit complex, His-tag at C-terminus of RnfG, plasmid-produced in A. woodii delta-rnf, DDM-solubilised, Ni-NTA and gel filtration, anoxic; with Na(+)-translocating ferredoxin:NAD(+) oxidoreductase complex subunit B; Na(+)-translocating ferredoxin:NAD(+) oxidoreductase complex subunit D; Na(+)-translocating ferredoxin:NAD(+) oxidoreductase complex subunit G; Na(+)-translocating ferredoxin:NAD(+) oxidoreductase complex subunit E; Na(+)-translocating ferredoxin:NAD(+) oxidoreductase complex subunit A; conditions: 500 µM NADH, 10 min, anoxic; stacks on non-covalent FMN of RnfC
[2] = target: T1, Rnf complex (NADH / FMN site in RnfC); conditions: 30 µM ferredoxin pre-reduced by CO and CODH/ACS; 20 mM Tris/HCl, 20 mM NaCl, pH 7.2, 30 °C
[3] = target: Rnf complex (FMN^G site in RnfG) (Acetobacterium woodii, UniProt H6LC30); conditions: covalent, linked to T185 of RnfG; 5 µM FMN in purification buffer
[4] = target: Rnf complex (riboflavin and FMN^D sites in RnfD) (Acetobacterium woodii, UniProt H6LC31)
[5] = target: B5; assay: cryo-EM structure; Rnf complex purified in DDM, grids prepared under strictly anoxic conditions; NADH-reduced (3.3 Å), Fd-reduced (2.8 Å; state with B8 closer to the membrane 2.9 Å) and apo (3.0 Å) states, all with the same overall organisation; conditions: both partners purified
[6] = target: B1; assay: as above; conditions: both partners purified
[7] = target: T2, RnfC subunit of the Rnf complex from Acetobacterium woodii (Acetobacterium woodii, UniProt H6LC32 1-443); assay: as above; conditions: both partners purified
T2 construct: rnf genes amplified from genomic DNA
T2 sequence: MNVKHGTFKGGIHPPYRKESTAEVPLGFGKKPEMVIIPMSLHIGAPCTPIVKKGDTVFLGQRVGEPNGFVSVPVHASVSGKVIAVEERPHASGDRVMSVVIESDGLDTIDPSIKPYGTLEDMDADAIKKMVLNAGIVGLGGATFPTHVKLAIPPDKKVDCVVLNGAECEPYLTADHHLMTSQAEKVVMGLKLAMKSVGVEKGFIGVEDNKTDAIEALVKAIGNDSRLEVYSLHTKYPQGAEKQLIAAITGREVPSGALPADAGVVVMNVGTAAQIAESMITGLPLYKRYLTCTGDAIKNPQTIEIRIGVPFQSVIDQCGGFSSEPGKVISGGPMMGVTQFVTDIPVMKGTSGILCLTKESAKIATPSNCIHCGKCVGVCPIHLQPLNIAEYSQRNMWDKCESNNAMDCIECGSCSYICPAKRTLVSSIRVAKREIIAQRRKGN

[8] = target: B4; assay: as above; conditions: both partners purified
[9] = target: B3; assay: as above; conditions: both partners purified

In the case of `NC(=O)C1=CN([C@@H]2O[C@H](COP(=O)(O)OP(=O)(O)OC[C@H]3O[C@@H](n4cnc5c(N)ncnc54)[C@H](O)[C@@H]3O)[C@@H](O)[C@H]2O)C=CC1` [NADH], the “cryo-EM structure, 3.3 Å” value [1] is reported as “we observed a well-resolved density for a bound NADH molecule”.

For `NC(=O)c1ccc[n+]([C@@H]2O[C@H](COP(=O)(O)OP(=O)(O)OC[C@H]3O[C@@H](n4cnc5c(N)ncnc54)[C@H](O)[C@@H]3O)[C@@H](O)[C@H]2O)c1` [NAD^+], the “ferredoxin:NAD oxidoreductase assay” value [2] was “catalysed the ferredoxin-dependent reduction of NAD^+”.

With `Cc1cc2nc3c(=O)[nH]c(=O)nc-3n(C[C@H](O)[C@H](O)[C@H](O)COP(=O)(O)O)c2cc1C` [flavin mononucleotide] the “cryo-EM structure, 2.8-3.3 Å” value [3] was “covalently binds FMN^G via T185^RnfG in its antiparallel βαβ-fold” and the “cryo-EM structure, 2.8-3.3 Å” value ([4]; covalent, linked to T156 of RnfD, 5 µM FMN in purification buffer) was “RnfD contains an FMN^D cofactor covalently linked to T156^RnfD”.

With `Cc1cc2nc3c(=O)[nH]c(=O)nc-3n(C[C@H](O)[C@H](O)[C@H](O)CO)c2cc1C` [riboflavin] the “cryo-EM structure, 2.8-3.3 Å” value ([4]; pocket of RnfD connected to cytoplasmic side, hydrogen bonds to D249 and N123 of RnfD) was “RnfD binds the redox cofactor riboflavin (RBF)”.

B1: binds [5].

B2: RnfA subunit of the Rnf complex from Acetobacterium woodii (natural protein)
chain: MTLIFIMISAIFVNNFVLSRFLGICPFLGVSKQVETAVGMGVAVTFVMALASAITYVVQYAILDPLSLGYLQTIAFILIIAALVQLVEMIIKKSSPSLYQALGVYLPLITTNCAVLGVALINIQNEYNFIETIFNGVGAALGFTLAIVLFAGIRERLETSAVPKALEGFPIALLTAGLMAIAFLGFSGMKL
notes: RnfA, integral membrane subunit of the Na+-pumping Rnf complex, Acetobacterium woodii; rnf genes amplified from genomic DNA
B2: binds [5]; binds [6].

B3: binds [7].

B4: binds [7].

B5: binds [8]; binds [9].
